Key:
Assay in all cases: two-hybrid library CCmax;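 also: natural log of median RNA to DNA barcode read ratio; higher means stronger binding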
[1] = target: T1, 4H458-AA; details: mean of both orientations
T1 chain: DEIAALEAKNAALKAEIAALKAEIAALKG

[2] = target: T2, 4H2698-AA; details: mean of both orientations
T2 chain: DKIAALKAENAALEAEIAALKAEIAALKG

[3] = target: T3, 4H909-AA; details: mean of both orientations
T3 chain: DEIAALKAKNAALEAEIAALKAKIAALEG

[4] = target: T4, 4H3165-AA; details: mean of both orientations
T4 chain: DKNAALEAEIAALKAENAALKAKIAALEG

[5] = target: T5, 4H2274-AA; details: mean of both orientations
T5 chain: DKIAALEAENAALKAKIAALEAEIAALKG

[6] = target: T6, 4H310-AA; details: mean of both orientations
T6 chain: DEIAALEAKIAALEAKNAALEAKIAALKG

[7] = target: T7, 4H850-AA; details: mean of both orientations
T7 chain: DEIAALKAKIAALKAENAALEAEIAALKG

[8] = target: T8, 4H2865-AA; details: mean of both orientations
T8 chain: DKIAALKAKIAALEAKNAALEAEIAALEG

[9] = target: T9, 4H2649-AA; details: mean of both orientations
T9 chain: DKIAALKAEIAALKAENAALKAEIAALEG

[10] = target: T10, 4H930-AA
T10 chain: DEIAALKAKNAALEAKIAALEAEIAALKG

[11] = target: T11, 4H1842-AA; details: mean of both orientations
T11 chain: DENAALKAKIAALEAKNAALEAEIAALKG

[12] = target: T12, 4H3120-AA; details: mean of both orientations
T12 chain: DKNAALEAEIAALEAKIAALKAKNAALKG

[13] = target: T13, 4H3697-AA; details: mean of both orientations
T13 chain: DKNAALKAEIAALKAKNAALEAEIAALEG

[14] = target: T14, 4H3381-AA
T14 chain: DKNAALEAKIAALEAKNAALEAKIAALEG

[15] = target: T15, 4H485-AA; details: mean of both orientations
T15 chain: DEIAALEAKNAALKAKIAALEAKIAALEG

[16] = target: T16, 4H2473-AA; details: mean of both orientations
T16 chain: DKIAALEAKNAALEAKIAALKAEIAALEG

[17] = target: T17, 4H3130-AA; details: mean of both orientations
T17 chain: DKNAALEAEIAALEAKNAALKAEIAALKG

[18] = target: T18, 4H3753-AA; details: mean of both orientations
T18 chain: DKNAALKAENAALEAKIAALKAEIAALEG

[19] = target: T19, 4H3865-AA; details: mean of both orientations
T19 chain: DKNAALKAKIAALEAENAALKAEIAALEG

[20] = target: T20, 4H3410-AA; details: mean of both orientations
T20 chain: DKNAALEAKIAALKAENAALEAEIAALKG

[21] = target: T21, 4H2109-AA; details: mean of both orientations
T21 chain: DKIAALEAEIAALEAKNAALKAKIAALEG

[22] = target: T22, 4H2725-AA; details: mean of both orientations
T22 chain: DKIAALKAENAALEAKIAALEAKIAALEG

[23] = target: T23, 4H710-AA; details: mean of both orientations
T23 chain: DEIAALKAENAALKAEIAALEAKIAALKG

[24] = target: T24, 4H3395-AA; details: mean of both orientations
T24 chain: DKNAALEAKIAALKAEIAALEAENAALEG

[25] = target: T25, 4H891-AA; details: mean of both orientations
T25 chain: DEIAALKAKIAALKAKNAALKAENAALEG

[26] = target: T26, 4H2162-AA; details: mean of both orientations
T26 chain: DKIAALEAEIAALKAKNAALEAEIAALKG

[27] = target: T27, 4H536-AA; details: mean of both orientations
T27 chain: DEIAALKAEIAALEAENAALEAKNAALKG

[28] = target: T28, 4H629-AA; details: mean of both orientations
T28 chain: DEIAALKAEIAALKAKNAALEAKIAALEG

[29] = target: T29, 4H797-AA; details: mean of both orientations
T29 chain: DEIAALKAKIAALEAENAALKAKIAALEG

[30] = target: T30, 4H3016-AA; details: mean of both orientations
T30 chain: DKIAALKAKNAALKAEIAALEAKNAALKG

[31] = target: T31, 4H171-AA; details: mean of both orientations
T31 chain: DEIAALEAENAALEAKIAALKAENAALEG

[32] = target: T32, 4H2253-AA; details: mean of both orientations
T32 chain: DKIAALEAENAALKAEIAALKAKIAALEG

[33] = target: T33, 4H570-AA; details: mean of both orientations
T33 chain: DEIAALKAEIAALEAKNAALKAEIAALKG

[34] = target: T34, 4H1877-AA; details: mean of both orientations
T34 chain: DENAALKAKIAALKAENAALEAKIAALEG

[35] = target: T35, 4H174-AA; details: mean of both orientations
T35 chain: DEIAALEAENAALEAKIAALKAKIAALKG

[36] = target: T36, 4H1626-AA; details: mean of both orientations
T36 chain: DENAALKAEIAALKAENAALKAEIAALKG

[37] = target: T37, 4H2389-AA; details: mean of both orientations
T37 chain: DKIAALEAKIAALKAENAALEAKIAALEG

[38] = target: T38, 4H1864-AA; details: mean of both orientations
T38 chain: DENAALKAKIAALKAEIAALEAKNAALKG

[39] = target: T39, 4H1597-AA
T39 chain: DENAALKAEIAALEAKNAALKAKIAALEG

[40] = target: T40, 4H2330-AA; details: mean of both orientations
T40 chain: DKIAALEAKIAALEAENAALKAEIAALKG

[41] = target: T41, 4H3590-AA; details: mean of both orientations
T41 chain: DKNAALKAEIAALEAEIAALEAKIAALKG

[42] = target: T42, 4H94-AA; details: mean of both orientations
T42 chain: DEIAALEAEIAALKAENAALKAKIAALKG

[43] = target: T43, 4H745-AA; details: mean of both orientations
T43 chain: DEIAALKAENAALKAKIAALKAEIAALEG

[44] = target: T44, 4H3009-AA; details: mean of both orientations
T44 chain: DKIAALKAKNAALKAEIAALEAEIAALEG

[45] = target: T45, 4H2438-AA; details: mean of both orientations
T45 chain: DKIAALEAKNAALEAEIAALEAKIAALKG

**Q.** Which results are given for DENAALKAEIAALEAKNAALKAKIAALEG [4H1597-AA]?
**A.** interaction score [1]: -1.71; interaction score [2]: -0.556; interaction score [3]: -1.1; interaction score [4]: -0.486; interaction score [5]: -1.74; interaction score [6]: -0.161; interaction score [7]: 1.96; interaction score [8]: 0.229; interaction score [9]: -0.826; interaction score [10]: -1.69; interaction score [11]: -0.303; interaction score [12]: -1.49; interaction score [13]: 0.353; interaction score [14]: -0.659; interaction score [15]: -1.53; interaction score [16]: -1.3; interaction score [17]: -1.55; interaction score [18]: -0.89; interaction score [19]: 0.833; interaction score [20]: 2; interaction score [21]: -1.06; interaction score [22]: 0.827; interaction score [23]: -1.99; interaction score [24]: -1.14; interaction score [25]: -1.56; interaction score [26]: -1.31; interaction score [27]: -0.234; interaction score [28]: 0.0113; interaction score [29]: 0.0984; interaction score [30]: -1.4; interaction score [31]: -0.742; interaction score [32]: -1.29; interaction score [33]: -1.39; interaction score [34]: 2.43; interaction score [35]: -0.236; interaction score [36]: -1.36; interaction score [37]: 2.15; interaction score [38]: 0.43; interaction score [39]: 0.478; interaction score [40]: -1.59; interaction score [41]: 0.533; interaction score [42]: -0.751; interaction score [43]: -1.15; interaction score [44]: -1.02; interaction score [45]: -0.641
